Bridge positions count the residues as written; N and C are the ends. Square brackets hold non-standard residues; d marks the D form. Ends that are not written are not given here. * marks the point of attachment. Acetyl(2-(4-imidazolyl)) = O=C(Cc1c[nH]cn1)*; Aib = CC(C)(N)C(=O)O
T1: human GIP receptor (human, UniProt P48546 22-466)
T1 sequence (looked up): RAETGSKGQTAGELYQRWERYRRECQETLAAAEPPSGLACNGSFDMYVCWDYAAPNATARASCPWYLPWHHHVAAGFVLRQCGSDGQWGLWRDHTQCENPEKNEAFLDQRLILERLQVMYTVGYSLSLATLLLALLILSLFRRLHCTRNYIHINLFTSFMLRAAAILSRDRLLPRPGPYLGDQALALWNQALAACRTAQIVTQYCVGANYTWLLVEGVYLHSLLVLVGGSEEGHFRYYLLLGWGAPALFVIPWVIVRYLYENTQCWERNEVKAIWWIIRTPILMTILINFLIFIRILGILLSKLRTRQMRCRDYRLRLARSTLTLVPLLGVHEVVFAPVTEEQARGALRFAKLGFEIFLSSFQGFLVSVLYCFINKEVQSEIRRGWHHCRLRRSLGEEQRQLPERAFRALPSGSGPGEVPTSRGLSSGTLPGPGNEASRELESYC


Assays:
Experiment in all cases: cell-based or functional assay
human GLP-1 receptor = human GLP-1 receptor (human, UniProt P43220 24-463)
human GCG receptor = human GCG receptor (human, UniProt P47871 26-477)
human GIP receptor = target: T1, human GIP receptor

Sequence of human GCG receptor (P47871 26-477): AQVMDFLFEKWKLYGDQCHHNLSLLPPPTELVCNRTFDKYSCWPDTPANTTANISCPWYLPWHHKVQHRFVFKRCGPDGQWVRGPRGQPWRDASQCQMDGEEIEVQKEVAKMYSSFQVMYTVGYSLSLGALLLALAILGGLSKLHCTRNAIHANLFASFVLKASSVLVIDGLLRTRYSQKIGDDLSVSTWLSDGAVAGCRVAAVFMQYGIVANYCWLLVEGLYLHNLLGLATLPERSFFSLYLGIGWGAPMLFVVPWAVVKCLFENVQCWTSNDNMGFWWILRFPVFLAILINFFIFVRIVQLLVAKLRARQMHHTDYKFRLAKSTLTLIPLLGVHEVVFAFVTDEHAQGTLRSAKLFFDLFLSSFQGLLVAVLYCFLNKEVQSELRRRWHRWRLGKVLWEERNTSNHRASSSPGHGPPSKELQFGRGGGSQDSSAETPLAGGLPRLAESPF

Row | Binder | In vitro activity compared with native peptide (%) vs GLP-1 (cAMP EC50) (human GLP-1 receptor) [%] | In vitro activity compared with native peptide (%) vs Glucagon (cAMP EC50) (human GCG receptor) [%] | In vitro activity compared with native peptide (%) vs GIP (cAMP EC50) (human GIP receptor) [%]
1 | H[Aib]QGTFTSDVSSYLDGQAAKEFVAWLLKGC [triple agonist of SEQ ID NO: 6] | 17 | < 0.1 | < 0.1
2 | Y[Aib]QGTFTSDYSKYLDEKRAKEFVQWLLDHHCSSGQPPPS (not fully specified (bridges)) [triple agonist of SEQ ID NO: 43] | 12.6 | 88.4 | 3.7
3 | [Acetyl(2-(4-imidazolyl))][Aib]QGTFTSDYSICMDEIHQKDFVNWLLNTK (bridge 16-20) [triple agonist of SEQ ID NO: 49] | 29.8 | < 0.1 | 3.3
4 | [Acetyl(2-(4-imidazolyl))][Aib]QGTFTSDKSSYLDERAAQDFVQWLLDGGPSSGAPPPSS [triple agonist of SEQ ID NO: 38] | 2.3 |  | 
5 | H[Aib]QGTFTSDYSKYLDEKRQKEFVQWLLDTC (bridge 16-20) [triple agonist of SEQ ID NO: 52] | 44.1 | 7.5 | 0.3
6 | Y[Aib]QGTFTSDYSKYLDEKRAKEFVQWLLDHHPSSGQPPPSC (not fully specified (bridges)) [triple agonist of SEQ ID NO: 42] | 33.9 | 206 | 7.8
7 | HGQGTFTSDCSKQLDGQAAQEFVAWLLAGGPSSGAPPPS [triple agonist of SEQ ID NO: 44] | 1.3 | < 0.1 | < 0.1
8 | HGQGTFTSDCSKYLDGQRAQEFVAWLLAGGPSSGAPPPS [triple agonist of SEQ ID NO: 47] | 2.4 | < 0.1 | < 0.1
9 | HGQGTFTSDCSKYLDEQHAQEFVAWLLAGGPSSGAPPPS [triple agonist of SEQ ID NO: 46] | 1.4 | < 0.1 | < 0.1
10 | HGQGTFTSDCSKYLDGQRAQDFVNWLLAGGPSSGAPPPS [triple agonist of SEQ ID NO: 48] | 1.5 | < 0.1 | < 0.1
11 | HGQGTFTSDCSKYMDGQAAQDFVAWLLAGGPSSGAPPPS [triple agonist of SEQ ID NO: 45] | 6.6 | < 0.1 | < 0.1
12 | H[Aib]EGTFTSDYSIAMDEIHQKDFVNWLLAQC (bridge 16-20) [triple agonist of SEQ ID NO: 53] | 161 | 8.4 | 1.3
13 | H[Aib]QGTFTSDYSKYLDGQHAQCFVAWLLAGGGPSSGAPPPS [triple agonist of SEQ ID NO: 39] | 13.9 | 0.53 | < 0.1
14 | H[Aib]QGTFTSDYSKYLDEKRQKEFVQWLLNTC (bridge 16-20) [triple agonist of SEQ ID NO: 51] | 14.4 | 2 | 0.1
15 | H[Aib]QGTFTSDYSKYLCEKRQKEFVQWLLNGGPSSGAPPPSG (bridge 16-20) [triple agonist of SEQ ID NO: 36] | 37.4 | 0.39 | 0.2
16 | H[Aib]QGTFTSDKSKYLDERACQDFVQWLLDGGPSSGAPPPS [triple agonist of SEQ ID NO: 40] | 75.2 | < 0.1 | < 0.1
17 | H[Aib]QGTFTSDKSKYLDECAAQDFVQWLLDGGPSSGAPPPS [triple agonist of SEQ ID NO: 41] | 34.3 | < 0.1 | < 0.1
18 | H[Aib]QGTFTSDYSIAMDEIHQKDFVNWLLNTKC (bridge 16-20) [triple agonist of SEQ ID NO: 35] | 7.5 | < 0.1 | 1.3
19 | H[Aib]QGTFTSDYSIAMDEIHQKDFVNWLLAQC (bridge 16-20) [triple agonist of SEQ ID NO: 55] | 27.1 | 0.7 | 2.4
20 | H[Aib]QGTFTSDYSKYLDECRQKEFVQWLLNGGPSSGAPPPSG (bridge 16-20) [triple agonist of SEQ ID NO: 37] | 236 | 6.21 | 2.2
21 | H[Aib]EGTFTSDYSIAMDEIHQKDFVDWLLAEC (bridge 16-20) [triple agonist of SEQ ID NO: 54] | 30.6 | 1.4 | 0.1
22 | H[Aib]QGTFTSDYSKYLDEKRAKEFVQWLLDHHPSSGQPPPSC (bridge 16-20) [triple agonist of SEQ ID NO: 50] | 67.4 | 50.5 | 2.7
23 | H[Aib]QGTFTSDVSSYLLGQQQKEFIAWLVKGC [triple agonist of SEQ ID NO: 4] | 8.5 | < 0.1 | < 0.1
24 | H[Aib]QGTFTSDVSSYLLGQQQKEFIAWLVKGGGPSSGAPPPSC [triple agonist of SEQ ID NO: 5] | 42.1 | < 0.1 | < 0.1
25 | H[Aib]QGTFTSDVSSYLDGQAAKEFIAWLVKGC [triple agonist of SEQ ID NO: 1] | 3.2 | < 0.1 | < 0.1
26 | H[Aib]QGTFTSDYSKYLDEKRQKEFVNWLLAQKC (bridge 16-20) [triple agonist of SEQ ID NO: 34] | 19.1 | 0.92 | 0.6
